Reference: PMC10696041

B1: MBP-CUB1CUB2 domains of PCPE-2, WT [human] / bone morphogenetic protein-1 [human] (parent)
chain 1: QSPERPVFTCGGILTGESGFIGSEGFPGVYPPNSKCTWKITVPEGKVVVLNFRFIDLESDNLCRYDFVDVYNGHANGQRIGRFCGTFRPGALVSSGNKMMVQMISDANTAGNGFMAMFSAAEPNERGDQYCGGLLDRPSGSFKTPNWPDRDYPAGVTCVWHIVAPKNQLIELKFEKFDVERDNYCRYDYVAVFNGGEVNDARRIGKYCGDSPPAPIVSERNELLIQFLSDLSLTADGFIGHYIFRPK
chain 2: AATSRPERVWPDGVIPFVIGGNFTGSQRAVFRQAMRHWEKHTCVTFLERTDEDSYIVFTYRPCGCCSYVGRRGGGPQAISIGKNCDKFGIVVHELGHVVGFWHEHTRPDRDRHVSIVRENIQPGQEYNFLKMEPQEVESLGETYDFDSIMHYARNTFSRGIFLDTIVPKYEVNGVKPPIGQRTRLSKGDIAQARKLYKCPACGETLQDSTGNFSSPEYPNGYSAHMHCVWRISVTPGEKIILNFTSLDLYRSRLCWYDYVEVRDGFWRKAPLRGRFCGSKLPEPIVSTDSRLWVEFRSSSNWVGKGFFAVYEAICGGDVKKDYGHIQSPNYPDDYRPSKVCIWRIQVSEGFHVGLTFQSFEIERHDSCAYDYLEVRDGHSESSTLIGRYCGYEKPDDIKSTSSRLWLKFVSDGSINKAGFAVNFFKEVDECSRPNRGGCEQRCLNTLGSYKCSCDPGYELAPDKRRCEAACGGFLTKLNGSITSPGWPKEYPPNKNCIWQLVAPTQYRISLQFDFFETEGNDVCKYDFVEVRSGLTADSKLHGKFCGSEKPEVITSQYNNMRVEFKSDNTVSKKGFKAHFFSEKRPALQPPRGRPHQLKFRVQKRNRTPQ

Variants of: B1
Assay: SPR
Details: with bone morphogenetic protein-1 [human]; 50 nM MBP-CUB1CUB2; immobilized BMP-1 (1302 RU); parent: 17; read off a plot

Variant | response [RU]
chain 1 QSPERPVFTCGGILTGESGFIGSEGFPGVYPPNSKCTWKITVPEGAVVVLNFRFIDLESDNLCRYDFVDVYNGHANGQRIGRFCGTFRPGALVSSGNKMMVQMISDANTAGNGFMAMFSAAEPNERGDQYCGGLLDRPSGSFKTPNWPDRDYPAGVTCVWHIVAPKNQLIELKFEKFDVERDNYCRYDYVAVFNGGAVNDARRIGKYCGDSPPAPIVSEANELLIQFLSDLSLTADGFIGHYIFRPK [chain 1 K46A E197A R220A] | 7.2
chain 1 QSPERPVFTCGGILTGESGFIGSEGFPGVYPPNSKCTWKITVPEGKVVVLNFRFIDLESDNLCRYDFVDVYNGHANGQRIGRFCGTFRPGALVSSGNKMMVQMISDANTAGNGFMAMFSAAEPNERGDQYCGGLLDRPSGSFKTPNWPDADYPAGVTCVWHIVAPKNQLIELKFEKFDVERDNYCRYDYVAVFNGGEVNDARRIGKYCGDSPPAPIVSERNELLIQFLSDLSLTADGFIGHYIFRPK [chain 1 R150A] | 18
chain 1 QSPERPVFTCGGILTGESGFIGSEGFPGVYPPNSKCTWKITVPEGKVVVLNFRFIDLESDNLCRYDFVDVYNGHANGQRIGRFCGTARPGALVSSGNKMMVQMISDANTAGNGFMAMFSAAEPNERGDQYCGGLLDRPSGSFKTPNWPDRDYPAGVTCVWHIVAPKNQLIELKFEKFDVERDNYCRYDYVAVFNGGEVNDARRIGKYCGDSPPAPIVSERNELLIQFLSDLSLTADGFIGHYIFRPK [chain 1 F87A] | 16

Same assay, conditions: with bone morphogenetic protein-1 [human]; 50 nM MBP-CUB1CUB2; immobilized BMP-1 (1302 and 1492 RU); parent: 100; read off a plot

Variant | percent of parent (% binding / WT)
chain 1 QSPERPVFTCGGILTGESGFIGSEGFPGVYPPNSKCTWKITVPEGAVVVLNFRFIDLESDNLCRYDFVDVYNGHANGQRIGRFCGTFRPGALVSSGNKMMVQMISDANTAGNGFMAMFSAAEPNERGDQYCGGLLDRPSGSFKTPNWPDRDYPAGVTCVWHIVAPKNQLIELKFEKFDVERDNYCRYDYVAVFNGGAVNDARRIGKYCGDSPPAPIVSEANELLIQFLSDLSLTADGFIGHYIFRPK [chain 1 K46A E197A R220A] | 40
